This note sets out measurements from US20180185504A1 (Regeneron, published 2018).

B1: H1H6960N (antibody, human IgG1, V domains shown)
VH: EVQLVESGGGLVKPGGSLRLSCAASGITFSSYSMNWVRQAPGKGLEWVSSISTRSSLIHYADSVKGRFTISRDNAKNSLYLQMNSLRDEDTAVYYCARWDAAAAFDYWGQGTLVIVSS
VL: DIQLTQSPSFLSASVGDRVTITCWASQGISSYLAWYQQKPGKAPKLLIYVASTLQSGVPSRFSGSGSGTEFTLTISSLQPEDFATYFCQQLNSYPLTFGGGTKVEIK
notes: Tested with human IgG1 Fc (H1H); also called H2M6960N
B2: H1H6953N (antibody, human IgG1, V domains shown)
VH: EVQLLESGGGLVQPGGTLRLSCAASGFTFSAYAMSWVRQAPGKGLEWVSSINVRAGDTYYADSVKGRFTISRDNSKNTLFLLMNSLRAEDTAAYYCAKARYSSNWGFDFWGQGTLVTVSS
VL: DIVMTQSPDSLTVSLGARTTINCQSSQTILHSSNNHNYLAWYQQKPGLPPKLLIYWSSTRESGVPDRFSGSGSGTDFTLTISSLQAEDVAIYYCQQYSNTPYTFGQGTKLEIN
notes: Tested with human IgG1 Fc (H1H); also called H1M6953N
B3: H1H6801P (antibody, human IgG1, V domains shown)
VH: QVQLQQSGPGLVKPSQTLSLTCVISGDSVSSNTAWNWVRQSPSRGLEWLGRTYYRSKWYNDYAVSVKSRITINPDTSKNQFSLLMNSVTPEDTAVYYCARVVRGLNYFDYWGQGTLVTVSS
VL: DIVMTQSPDSLAVSLGERATINCKSSQSVLYNSNNKNYLAWYQQKPGQPPKLLIYWSSSRESGVPDRFSGSGSGTDFTLTISGLQAEDVAIYYCQQYSTIPYTFGQGTKLEIK
notes: Human IgG1 Fc (H1H)
B4: H1H6800P (antibody, human IgG1, V domains shown)
VH: EVQLVESGGGLVQPGRSLRLSCAASGFTFDGYAMHWVRQGPGKGLEWVSGISWYSDTLGYADSVKGRFTISRDNAKNSLYLQMNSLRTEDTAFYYCAKISSSGWAFDYWGQGTLVTVSS
VL: EIVLTQSPGTLSLSPGERATLSCRASHSVSSAYLAWYQQKPGQTPRLLIYGTSSRATGIPDRFSGSGSGTDFTLTISRLEPEDFAVYYCQQYGSSPLFTFGPGTKVDIK
notes: Human IgG1 Fc (H1H)
B5: H1H6958N2 (antibody, human IgG1, V domains shown)
VH: QVQLVESGGGVVQPGRSLRLSCGASGFTFRNYGMQWVRQGPGKGLEWVTLISFDGNDKYYADSVKGRFTISRDNSKNTLFLQMNSLRTEDTAVYYCARGGDFDYWGQGTLVTVSS
VL: DIQMTQSPSSLSASVGDRVTITCRASQDIRKDLGWYQQKPGKAPKRLIYAASSLHSGVPSRFSGSGSGTEFTLTISSLQPEDFATYYCLQHNSYPMYTFGQGTKLEIK
notes: Tested with human IgG1 Fc (H1H); also called H2M6958N2
B6: H1H6959N2 (antibody, human IgG1, V domains shown)
VH: EVQLVESGGGLVQPGRSLRLSCAASGFTFDDYAMHWVRQAPGKGLEWVSGISWHSGIIGYADSVKGRFTISRDNAKNSLYLQMNSLRTEDAALYYCAKIGSYFYFDSWGQGTLVTVSS
VL: EIVLTQSPGTLSLSPGERATLSCRASQSVSSNYLAWYQQKPGQAPRLLIYGASSRATGIPDRFSGSGSGTDFTLTISRLEPEDFAVYYCQQFGSSGYTFGQGTNLEIK
notes: Tested with human IgG1 Fc (H1H); also called H2M6959N2
B7: H1H6803P (antibody, human IgG1, V domains shown)
VH: EVQLVESGGGVVRPGGSLRLSCAASGFKFDDYGMTWVRHVPGKGLEWVSGINWNGGRTGYTDSVKGRFTISRDNAKNSLYLQMNSLRAEDTALYHCAGARRDAFDIWGQGTMVTVSS
VL: DIQMTQSPSSLSASIGDRVTITCRASQNIIKYLNWYQQNAGKAPKLLIYTASSLQSGVPSRFSGSGSGTDFTLTISSLQPEDFATYYCQQSSSSPYTFGQGTKLEIK
notes: Human IgG1 Fc (H1H)
B8: H1H6807P (antibody, V domains shown)
VH: QVQLVESGGGVVQPGRSLRLSCAASGFTFSDYNMHWVRQAPGKGLEWVAVIWYDGSNKHYADSVKGRFTISRDNSKNTLYLQMNSLRAEDTAVYYCARDGFTIFGMVLDYWGQGTLVTVSS
VL: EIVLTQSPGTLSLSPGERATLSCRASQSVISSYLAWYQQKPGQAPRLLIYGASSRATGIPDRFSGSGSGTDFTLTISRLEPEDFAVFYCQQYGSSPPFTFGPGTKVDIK
notes: Human IgG1 Fc (H1H)
B9: H1H6804P (antibody, human IgG1, V domains shown)
VH: QVTLKESGPVLVKPTQTLSLTCTVSGFSLSDAGMGVSWIRQPPGKALEWLAHIFSNDGKSYSTSLKSRLTISKDTSKRQVVLTMTNMDPVDTATYYCARIRTGTYSLYLDYWGQGTLVTVSS
VL: DIQMTQSPSSLSASVGDRVTITCRASQSINSYLNWYQQKPGKAPKLLLYFASSLQSGVPSRFSGSGSGTDFTLTISSLQPEDFASYYCQESYSTPWTFGQGTKVEIK
notes: Human IgG1 Fc (H1H)

Substitutions are numbered along the chain they refer to. Numbers in names are those of the source.

For one assay, the target named is T1, hPRLR.mmh (soluble monomeric human PRLR) (human).
T1 construct: called soluble monomeric PRLR protein
T1 chain: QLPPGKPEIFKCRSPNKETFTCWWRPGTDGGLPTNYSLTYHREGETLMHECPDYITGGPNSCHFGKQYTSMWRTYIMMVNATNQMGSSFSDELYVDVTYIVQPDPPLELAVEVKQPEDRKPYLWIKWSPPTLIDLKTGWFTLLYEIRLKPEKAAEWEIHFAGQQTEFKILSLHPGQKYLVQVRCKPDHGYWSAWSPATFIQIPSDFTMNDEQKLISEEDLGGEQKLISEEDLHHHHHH
Kind of assay: SPR Biacore, 25 C, mAb capture. The procedure: (§1) Measurements were conducted on a T200 Biacore instrument. Kinetic association (kₐ) and dissociation (kd) rate constants were determined by processing and fitting the data to a 1:1 binding model using Scrubber 2.0 curve fitting software.
In general, Kd refers to the free concentration of one partner at which half of the binding sites on the other are occupied at equilibrium, for simple one-to-one binding. As usually defined, the koff is the rate constant with which the complex falls apart. By kon is commonly meant the rate constant with which the complex forms. B1 displayed a Kd of 6.74 nM, a T½ of 15.8 min, a koff of 0.000729 s⁻¹ and an on-rate (kon) of 108000 M⁻¹ s⁻¹.
For B2 the same measures were 0.268 nM, 54.5 min, 0.000212 s⁻¹ and 792000 M⁻¹ s⁻¹.
B3 had a Kd of 0.894 nM, a T½ of 15 min, a koff of 0.000756 s⁻¹ and a kon of 846000 M⁻¹ s⁻¹.
Regarding B4, the Kd was determined as 0.972 nM, the T½ was 28 min, the off-rate constant (koff) turned out to be 0.000409 s⁻¹ and the kon was 421000 M⁻¹ s⁻¹.
For B5 the same measures were 1.17 nM, 42.5 min, 0.000272 s⁻¹ and 233000 M⁻¹ s⁻¹.
The like results for B6 were, in that order, 202 nM, 0.3 min, 0.036 s⁻¹ and 179000 M⁻¹ s⁻¹.
The like results for B7 were, in that order, 1.67 nM, 84 min, 0.000137 s⁻¹ and 82400 M⁻¹ s⁻¹.
The molecule B8 yielded a Kd of 0.189 nM, a T½ of 80 min, a koff of 0.000144 s⁻¹ and a kon of 761000 M⁻¹ s⁻¹.
For B9 the same measures were 1.4 nM, 18 min, 0.000634 s⁻¹ and 453000 M⁻¹ s⁻¹.

The next assay addresses T2, hPRLR.mFc (soluble dimeric human PRLR) (human).
T2 construct: dimeric PRLR construct
T2 chain: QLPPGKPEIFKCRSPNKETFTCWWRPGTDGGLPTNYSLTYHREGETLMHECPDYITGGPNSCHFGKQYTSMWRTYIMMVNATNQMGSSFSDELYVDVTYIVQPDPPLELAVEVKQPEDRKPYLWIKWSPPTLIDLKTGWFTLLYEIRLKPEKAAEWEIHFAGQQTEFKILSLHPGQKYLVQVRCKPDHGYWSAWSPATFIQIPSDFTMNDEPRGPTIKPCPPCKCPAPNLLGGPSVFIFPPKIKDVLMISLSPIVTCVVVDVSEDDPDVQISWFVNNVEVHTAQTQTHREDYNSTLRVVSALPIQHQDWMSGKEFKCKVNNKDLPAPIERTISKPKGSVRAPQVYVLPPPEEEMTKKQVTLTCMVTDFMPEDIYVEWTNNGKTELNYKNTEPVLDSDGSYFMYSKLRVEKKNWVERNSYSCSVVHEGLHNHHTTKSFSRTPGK
Kind of assay: SPR Biacore, 25 C, mAb capture. As to the method:
as §1
A general note: SPR reads the build-up and loss of mass on a sensor chip optically.
B1 returned a Kd of 0.141 nM, a T½ of 324 min, a koff of 3.56e-05 s⁻¹ and a kon of 252000 M⁻¹ s⁻¹.
For B2 the same measures were 0.067 nM, 242 min, 4.77e-05 s⁻¹ and 711000 M⁻¹ s⁻¹.
The like results for B3 were, in that order, 0.161 nM, 106 min, 0.000109 s⁻¹ and 675000 M⁻¹ s⁻¹.
Molecule B4 came in with an equilibrium dissociation constant (Kd) of 0.184 nM, a T½ of 133 min, a koff of 8.69e-05 s⁻¹ and a kon of 473000 M⁻¹ s⁻¹.
For B5 the same measures were 0.0867 nM, 316 min, 3.66e-05 s⁻¹ and 422000 M⁻¹ s⁻¹.
The molecule B6 yielded a Kd of 1.45 nM, a T½ of 22.3 min, a koff of 0.000518 s⁻¹ and a kon of 359000 M⁻¹ s⁻¹.
The like results for B7 were, in that order, 0.607 nM, 184 min, 6.29e-05 s⁻¹ and 104000 M⁻¹ s⁻¹.
The like results for B8 were, in that order, 0.0803 nM, 212 min, 5.46e-05 s⁻¹ and 680000 M⁻¹ s⁻¹.
For B9 the same measures were 0.193 nM, 133 min, 8.69e-05 s⁻¹ and 451000 M⁻¹ s⁻¹.

Another assay has as its target T3, macaca fascicularis (mf) PRLR.mmh (soluble monomeric monkey PRLR) (Macaca fascicularis).
T3 construct: called soluble monomeric PRLR protein
T3 chain: T1 chain with I76V, A110T, I125M, I158T, T207I
Kind of assay: SPR Biacore, 25 C, mAb capture. The procedure:
as §1
B1: the affinity, expressed as Kd, was 6.2 nM; the T½ was determined as 19.8 min; the koff came out at 0.000583 s⁻¹; the on-rate constant (kon) worked out at 94000 M⁻¹ s⁻¹.
For B2 the same measures were 0.438 nM, 36.3 min, 0.000319 s⁻¹ and 727000 M⁻¹ s⁻¹.
Molecule B3 gave a Kd of 1.88 nM, a T½ of 9 min, an off-rate (koff) of 0.00123 s⁻¹ and a kon of 657000 M⁻¹ s⁻¹.
B4: the affinity, expressed as Kd, was 1.25 nM; the T½ was 30 min; the koff worked out at 0.00038 s⁻¹; the kon came to 303000 M⁻¹ s⁻¹.
For B5 the same measures were 1.44 nM, 41.3 min, 0.00028 s⁻¹ and 195000 M⁻¹ s⁻¹.
Turning to B6, the Kd stood at 129 nM, the T½ amounted to 0.7 min, the koff is 0.0167 s⁻¹ and the kon was 129000 M⁻¹ s⁻¹.
The like results for B7 were, in that order, 3.37 nM, 55 min, 0.000209 s⁻¹ and 62100 M⁻¹ s⁻¹.
For B8 the same measures were 0.346 nM, 76 min, 0.000151 s⁻¹ and 437000 M⁻¹ s⁻¹.
Consider B9, for which the affinity, expressed as Kd, was 1.99 nM; the T½ turned out to be 18 min; the off-rate constant (koff) stood at 0.000657 s⁻¹; the kon was 331000 M⁻¹ s⁻¹.
